Results taken from patent US20040175377A1, “Agent and method for reducing intraocular pressure” (priority 2000, published 2004).

B1: Hep II domain: recombinant 33 kilodalton Hep II domain of fibronectin containing type III repeats 12, 13 and 14 (SEQ ID NO:2) (protein, listed as Homo sapiens)
chain: IPAPTDLKFTQVTPTSLSAQWTPPNVQLTGYRVRVTPKEKTGPMKEINLAPDSSSVVVSGLMVATKYEVSVYALKDTLTSRPAQGVVTTLENVSPPRRARVTDATETTITISWRTKTETITGFQVDAVPANGQTPIQRTIKPDVRSYTITGLQPGTDYKIYLYTLNDNARSSPVVIDASTAIDAPSNLRFLATTPNSLLVSWQPPRARITGYIIKYEKPGSPPREVVPRPRPGVTEATITGLEPGTEYTIYVIALKNNQKSEPLIGRKKT

Experiments:
[1] = system: differentiated human TM (HTM) cell cultures; assay: Differentiated HTM cell cultures incubated with recombinant protein; extracellular matrix and cell contacts by immunofluorescence, phase microscopy and western blot; type: cell-based; conditions: for disruption of cell contacts or matrix assembly: pentapeptides administered separately to HTM cell cultures
Description: (§1) Differentiated human TM (HTM) cell cultures were incubated with a recombinant Hep II domain protein for eighteen hours. The effect on the extracellular matrix and cell contacts were observed using immunofluorescence microcopy, phase microscopy and western blot. Differentiated HTM cultures look like endothelial cells and form cell to cell junctions and closely resemble TM cells in vivo. Differentiated HTM cells also secrete matrix proteins such as fibronectin, type IV collagen and laminin. Non-differentiated cells lack these qualities and are less suitable for in vitro analysis methods. Cells were grown as described in Polansky J R, Weinreb R, Alvarado J A. Studies on human trabecular cells propagated in vitro. Vis Res 1981;21 :155-60 and Polansky J R, Weinreb R N, Baxter J D, Alvarado J. Human trabecular cells. I. Establishment in tissue culture and growth characteristics. Invest Ophthalmol Vis Sci 1979;18:1043-9, both incorporated by reference in their entirety.
After incubation, the turnover of fibronectin fibrils, a good indicator of matrix formation, was studied. […] The Hep II protein was a GST protein. The GST portion was cleaved with thrombin as described by Bultmann, H., et al., Fibronectin Fibrilogenesis Involves the Heparin II Binding Domains of Fibronectin, J. Biol. Chem. 273:2601-2609 (1998).
To identify the active region of the Hep II domain, smaller fragments including either the Type III repeat 12, the Type III repeat 14, or the Type III repeats 13 and 14 were produced as recombinant GST proteins, as above.

[2] = system: Schlemm's canal endothelium and extracellular matrix of the eye; assay: Light and electron microscopy of fixed treated and untreated organ-cultured eyes; design: species or system human; conditions: fixed eyes after perfusion
From the text: The treated and untreated eyes were then fixed and prepared for both light and electron microscopy. […] Part of the inner side of the cannel was disrupted and small discontinuous cellular processes replaced a continuous cell layer found in a normal eye. […] These changes can account for the increased outflow in the presence of the Hep II domain since they would have created additional spaces or openings for fluid flow.

vinculin = assay: Tyrosine phosphorylation of vinculin after treatment; type: cell-based, human; conditions: after treatment of the eye with the Hep II domain
Description: as §1
Further, a number of morphological changes also indicate disrupted cell contacts. […] Vinculin is a major structural protein that maintain cell-cell and cell-adhesion contracts. Changes in its phosphorylation state indicate that the treatment has biochemically affected the molecules that maintain cell-cell and cell-adhesion contracts. […]

[3] = system: human trabecular meshwork organ culture (eye); assay: Human eye organ culture perfusion, paired control and test eyes, IOP
Description: While this effect on matrix formation was relatively slow, the Hep II domain acts quickly in intact eyes to increase outflow facility. In human eye culture studies using pairs of control and test eyes, as described by Johnson, D H and Tschumper, R C. (1987) Human Trabecular Meshwork Organ Culture. IVOS 28:945-953, incorporated by reference, a baseline IOP was determined, pumps were turned off and the Hep II domain was injected at 13.8 μM into the anterior chamber of one eye. The pumps were kept off for four hours to allow the Hep II domain to mix with the contents of the anterior chamber. After four hours, the treated eyes were perfused with buffer containing the Hep II domain at 13.8 μM for twenty-four hours. Untreated eyes were perfused with buffer. […] After twenty-four hours, the pumps were turned off and the perfusate in both eyes was replaced with fresh buffer without the protein.

| Molecule | disruption of cell contacts or matrix assembly [1] | level of fibronectin matrixes (turnover of fibronectin fibrils) ([1]; HTM cell cultures, 4.6 μM, eighteen hours incubation) | morphological changes indicating disrupted cell contacts ([1]; compared to untreated cultures) | morphological changes at higher peptide concentrations ([1]; higher peptide concentrations) | electron microscopy, endothelium in Schlemm's canal [2] | electron microscopy, extracellular matrix in the juxtacanalicular region [2] | light microscopy, treated versus untreated eyes [2] | tyrosine phosphorylation of vinculin (vinculin) | decrease in IOP ([3]; 13.8 μM injected into the anterior chamber, pumps off four hours, then perfusion at 13.8 μM for twenty-four hours, versus baseline) | pressure in the treated eye after replacement of perfusate with buffer without the protein ([3]; after twenty-four hours perfusion, absence of the Hep II domain) | treated organ-cultured eyes with lower IOP after treatment ([3]; plurality of assays, number of treated eyes) |
| --- | --- | --- | --- | --- | --- | --- | --- | --- | --- | --- | --- |
| IDAPS (listed as Homo sapiens) | neither disrupted cell contacts or matrix assembly | – | – | – | – | – | – | – | – | – | – |
| PRARI (listed as Homo sapiens) | neither disrupted cell contacts or matrix assembly | – | – | – | – | – | – | – | – | – | – |
| B1 | – | dramatic decrease | increase in the number of retraction fibers | retraction and rounding up of many cells | altered | altered and amorphous material appeared in the cribiform meshwork | not distinguishable | significant increase | 32% | returned to the baseline level | six of seven |
